The source of these data is patent publication US20210255205A1, “COMPOSITIONS AND METHODS FOR TREATING METABOLIC DISEASE” (THE REGENTS OF THE UNIVERSITY OF CALIFORNIA, priority 2018, published 2021).

First the molecules themselves.
B1: Aster-B: purified recombinant ASTER domain of mouse Aster-B (protein, UniProt Q80TI0 224-560, looked up, fragment)
chain: NELGLTSDDEDYVPPDDDFNTMGYCEEIPIEENEVNDSSSKSSIETKPDASPQLPKKSITNSTLTSTGSSEAPVSFDGLPLEEEVMEGDGSLEKELAIDNIIGEKIEIMAPVTSPSLDFNDNEDIPTELSDSSDTHDEGEVQAFYEDLSGRQYVNEVFNFSVDKLYDLLFTNSPFLRDFMEQRRFSDIIFHPWKKEENGNQSRVILYTITLTNPLAPKTATVRETQTMYKASQESECYVIDAEVLTHDVPYHDYFYTINRYTLTRVARNKSRLRVSTELRYRKQPWGFVKTFIEKNFWSGLEDYFRHLETELTKTESTYLAEIHRQSPKEKASKSSA
modifications: ASTER domain
B2: Aster-A: purified recombinant ASTER domain of mouse Aster-A (protein, UniProt Q8VEF1 261-576, looked up, fragment)
chain: AADHSQEPSPVGSRRGRVTPNLSRASSDADHGAEEDKEEQTDGLDASSSQTVTPVAEPLSSEPTPPDGPTSSLGPLDLLSREELLTDTSNSSSSTGEEGDLAALLPDLSGRLLINSVFHMGAERLQQMLFSDSPFLQGFLQQRKFTDVTLSPWSSDSKCHQRRVLTYTIPISNQLGPKSASVVETQTLFRRGPQAGGCVVDSEVLTQGIPYQDYFYTAHRYCILGLARNKARLRVSSEIRYRKQPWSLVKSLIEKNSWSGIEDYFHHLDRELAKAEKLSLEEGGKDTRGLLSGLRRRKRPLSWRGHRDGPQHPDPD
modifications: ASTER domain
B3: Aster-C: purified recombinant ASTER domain of mouse Aster-C (protein, UniProt Q8CI52 206-528, looked up, fragment)
chain: MEHLLSVEENVQPRSPGRSSVDDAGERDEKFSKAVSFTQESVSRASETEPLDGNSPKRGLGKEDSQSERNVRKSPSLASEKRISRAPSKSLDLNKNEYLSLDKSSTSDSVDEENIPEKDLQGRLYINRVFHISAERMFELLFTSSHFMQRFANSRNIIDVVSTPWTVESGGNQLRTMTYTIVLSNPLTGKYTAATEKQTLYKESREAQFYLVDSEVLTHDVPYHDYFYTLNRYCIVRSAKQRCRLRVSTDLKYRKQPWGLIKSLIEKNSWSSLESYFKKLESDLLMEESVLSQSIEDAGKHSSLRRRRRTLNRTAEPVPKLSS
modifications: ASTER domain

This experiment is described as follows: in vitro cholesterol transfer between heavy and light liposomes. The note with it: purified recombinant ASTER domain, 15 min under agitation. The experiment is classed as biochemical. The method, then:
Values are means±SEM. […] Input (Ctrl) served as a control for LXR enrichment. […] Values are means±SEM. […] Results values are means±SD. […] Results values are means±SD. […] Values are means±SEM.
Liposomes were generated by drying lipids in glass tube under liquid nitrogen. Lipid films were then resuspended in 50 mM hepes, 120 mM potassium acetate buffer ±0.75M sucrose where indicated. Lipid suspensions were then vortexed and incubated for 30 minutes at 37° C. (2 mM total lipid concentration). Suspensions were then snap frozen in liquid nitrogen and thawed rapidly at 37° C. five times. Light liposomes were prepared by extruding through 100 nm polycarbonate filters. Heavy liposomes containing sucrose were prepared by extruding through a 400 nm polycarbonate filter, then washing several times in 50 mM hepes, 120 mM potassium acetate buffer with no sucrose. Liposome sizes were confirmed using an N4 Dynamic Light Scattering instrument.
To test the ability of the ASTER domain to transfer cholesterol between membranes, an in vitro assay was optimized with heavy and light liposomes. Purified recombinant ASTER domain was incubated with “heavy” PC/dansyl-PE liposomes and “light” PC/cholesterol/dansyl-PE liposomes under agitation for 15 min. The liposomes were separated by centrifugation, and cholesterol levels were determined. Dansyl-PE intensities of heavy liposomes were used to normalize the cholesterol values.
For the molecule B1, the “cholesterol transfer to the heavy liposomes” value (“cholesterol transfer” for short) is on record as “efficiently facilitated cholesterol transfer”.

B2: the “cholesterol transfer” value is “efficiently facilitated cholesterol transfer”.

For the molecule B3, the “cholesterol transfer” value is “efficiently facilitated cholesterol transfer”.
